The source of these data is article PMC7449674.

The assay concerns the target human H3.1/H4 tetramer (ITC sample) (human) (UniProt P68431). Put plainly: ITC. For orientation: In ITC the heat of successive injections is recorded.

What is called Kd is the equilibrium constant for the complex coming apart. Turning to “mouse POLA1 N1 fragment (ITC sample) (from UniProt P33609 1-110) (domain or fragment)”, the Kd is 7.9 µM.
